Reference: patent US20130031647A1 (PIERRE FABRE MEDICAMENT, published 2013)
Residue numbers refer to the chain shown, from its start. In names and notes the source's numbering stands. Blank lines part the entries; values can stand above or below the molecule they belong to.

Key:
[1] = target: constitutively active mutant (CAM) Asn^119Ser CXCR4 receptor (human) (UniProt P61073); experiment: cell-based or functional assay
human CXCR4 receptor [2] = target: T1, human CXCR4 receptor (human, UniProt P61073 1-352); experiment: cell-based or functional assay
human CXCR4 receptor [3] = target: T1, human CXCR4 receptor; experiment: competition of [^125I]SDF-1 (1 nM) binding, SPA, CHO-K1 membranes expressing human CXCR4
Method: (§1) CHO-K1 cells, stably and constitutively expressing human CXCR4 receptor were obtained upon transfection of naïve CHO-K1 cells (ATCC CCL-61) with a mammalian expression vector carrying the whole coding sequence of human CXCR4 receptor (RefSeq NM_{—}003467). Cells were propagated in complete culture medium [DMEM-Ham's F12 supplemented with 5% fetal calf serum (FCS) and 500 μg/ml of geneticin]. Radioligand binding experiments were conducted on cell membranes obtained upon mechanical scrapping of CHO/CXCR4 cells in lysis buffer [Hepes 20 mM, pH 7.4, NaCl 150 mM] followed by centrifugation (10000 g, 15 min). […] Upon centrifugation [1000 g for 10 min.] radioactive counts were measured in a scintillation counter (TopCount, Perkin Elmer).

human CXCR4 receptor [4] = target: T1, human CXCR4 receptor; experiment: dose-dependent inhibition of [^125I]SDF-1 binding, SPA, CHO-K1 membranes expressing human CXCR4
Method: as §1

human CXCR4 receptor [5] = target: T1, human CXCR4 receptor; experiment: flow cytometry competition on CXCR4 transfected NIH3T3 cells; competitor: biotinylated murine 515H7
Text: In a first series of experiments, we constructed and analysed the anti-CXCR4 binding activities of the three first humanized variants. […] Therefore, VH1 was combined with the three different variants of VL (FIG. 23D-F).

CXCR2:YFP fusion protein = target: T2, CXCR2:YFP fusion protein (UniProt P25025 1-360); experiment: BRET in transiently transfected HEK293 cells
T2 construct: whole, on cells
T2 sequence (looked up): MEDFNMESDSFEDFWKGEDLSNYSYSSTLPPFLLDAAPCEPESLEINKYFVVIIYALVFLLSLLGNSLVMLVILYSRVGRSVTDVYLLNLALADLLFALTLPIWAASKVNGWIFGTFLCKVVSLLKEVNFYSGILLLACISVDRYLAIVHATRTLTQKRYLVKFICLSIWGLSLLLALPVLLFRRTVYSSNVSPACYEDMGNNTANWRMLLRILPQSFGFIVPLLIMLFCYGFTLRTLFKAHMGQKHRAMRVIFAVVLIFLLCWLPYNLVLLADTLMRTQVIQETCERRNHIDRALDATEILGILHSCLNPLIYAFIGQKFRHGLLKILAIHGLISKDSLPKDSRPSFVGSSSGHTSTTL
Method: The day after, cells were distributed in poly-lysine pre-coated white 96 MW plates in complete culture medium [DMEM supplemented with 10% FBS]. Cells were first cultivated at 37° C. with CO₂ 5% in order to allow cell attachment to the plate. Cells were then starved with 200 μl DMEM/well overnight. Immediately prior to the BRET experiment, DMEM was removed and cells were quickly washed with PBS. […] After incubation for further 10 minutes at 37° C., light-emission acquisition at 485 nm and 530 nm was initiated using the Mithras LB940 multilabel reader (Berthold) (1 s/wavelength/well repeated 15 times at room temperature).
Calculation of BRET ratio was performed as previously described (Angers et al., 2000): [(emission_{530 nm})−(emission_{485 nm})×Cf]/(emission_{485 nm}), where Cf=(emission_{530 nm}) (emission_{485 nm}) for cells expressing the Rluc fusion protein alone under the same experimental conditions. […] For sake of readability, results are expressed in milliBRET units (mBU); mBU corresponds to the BRET ratio multiplied by 1000.

human CXCR4 receptor [6] = target: T1, human CXCR4 receptor; experiment: competition of [^125I]SDF-1 (1 nM) binding, Mab at 100 nM, SPA, CHO-K1 membranes expressing human CXCR4
Method: as §1

Molecule: T140 (peptide)
inhibition of SDF-1-stimulated [^35S]GTPγS binding [1]: -159% | inhibition of basal [^35S]GTPγS binding [1]: -17%

B1: humanized antibody Hz515H7 VH1 D76N VL2.2 (antibody, human IgG1, kappa, V domains shown)
VH: EVQLVESGGGLVQPGRSLRLSCTASGFTFTDNYMSWVRQAPGKGLEWVGFIRNKANGYTTEYAASVKGRFTISRDNSKSIAYLQMNSLKTEDTAVYYCARDVGSNYFDYWGQGTLVTVSS
VL: DIVMTQSPDSLAVSLGERATMSCKSSQSLFNSRTRKNYLAWYQQKPGQPPKLLIYWASARDSGVPDRFTGSGSETYFTLTISRVQAEDVAVYYCMQSFNLRTFGQGTKVEIKR
notes: human IgG1/kappa format; also called hz515H7VL2.2
% of inhibition of [^35S]GTPγS binding stimulated by SDF-1 (100 nM) (human CXCR4 receptor [2]): 66% | IC50 in [^35S]GTPγS binding, NIH3T3/CXCR4 cells (human CXCR4 receptor [2]): 5.19 nM | inhibition of SDF-1-induced β-arrestin recruitment (BRET) (human CXCR4 receptor [2]): ~82% | percentage of inhibition of SDF-1-induced BRET increase, CXCR4 homo-dimers (human CXCR4 receptor [2]): ~33% | % inhibition of [^125I]SDF-1 (human CXCR4 receptor [3]): 61% | IC50 (human CXCR4 receptor [4]): 5.91 nM

B2: humanized antibody Hz515H7 VH1/c515H7 VL (antibody, human IgG1, V domains shown)
VH: B1 VH with N76D
VL: B1 VL with T5S, D9S, L15A, R18K, A19V, P49S, D66A, V89L
notes: also called VH1 combined with the chimeric VL (cVL); VH1 combined with the murine VL
binding result (human CXCR4 receptor [5]): binds

B4: hz515H7 VH1 VL2 (antibody, human IgG1, kappa, V domains shown)
VH: B1 VH with N76D
VL: B1 VL with D9S, P49S, D66A, V89L
notes: also called VH1 combined with variant 2 of VL
binding result (human CXCR4 receptor [5]): binds

B5: humanized antibody Hz515H7 VH1 VL1 (antibody, human IgG1, kappa, V domains shown)
VH: B1 VH with N76D
VL: B1 VL with M21I, S22N, A59T, D61E, T69S, E74G, Y76D, R83S, V84L
notes: human IgG1/kappa format; also called humanized variant 515H7 VH variant 1 VL variant 1
binding result (human CXCR4 receptor [5]): binds

B8: CXCR4/Rluc fusion protein (receptor, UniProt P61073 1-352, looked up)
chain: MEGISIYTSDNYTEEMGSGDYDSMKEPCFREENANFNKIFLPTIYSIIFLTGIVGNGLVILVMGYQKKLRSMTDKYRLHLSVADLLFVITLPFWAVDAVANWYFGNFLCKAVHVIYTVNLYSSVLILAFISLDRYLAIVHATNSQRPRKLLAEKVVYVGVWIPALLLTIPDFIFANVSEADDRYICDRFYPNDLWVVVFQFQHIMVGLILPGIVILSCYCIIISKLSHSKGHQKRKALKTTVILILAFFACWLPYYIGISIDSFILLEIIKQGCEFENTVHKWISITEALAFFHCCLNPILYAFLGAKFKTSAQHALTSVSRGSSLKILSKGKRGGHSSVSTESESSSFHSS
notes: whole, on cells; Transiently expressed in HEK293 cells for BRET; also called CXCR4 tagged with luciferase; not shown: Renilla reniformis luciferase (Rluc)
binding result (CXCR2:YFP fusion protein): binds

B10: anti-CXCR4 chimeric Mab c515H7 (antibody, human IgG1, kappa, V domains shown)
VH: EVNLVESGGGLVQPGGSLRLSCATSGFTFTDNYMSWVRQPPGKALEWLGFIRNKANGYTTDYSASVRGRFTISRDNSQSILYLQMNALRAEDSATYYCARDVGSNYFDYWGQGTTLTVSS
VL: B1 VL with T5S, D9S, L15A, R18K, A19V, P49S, D66A, V89L
notes: also called chimeric 515H7; chimeric antibody
% inhibition of [^125I]SDF-1 (human CXCR4 receptor [6]): 55% | IC50 in [^35S]GTPγS binding, Hela cells (human CXCR4 receptor [2]): 0.6 nM | IC50 in [^35S]GTPγS binding, NIH3T3/CXCR4 cells (human CXCR4 receptor [2]): 1.5 nM | decrease in SDF-1-induced U937 cells migration (human CXCR4 receptor [2]): > 80% | inhibition of SDF-1-induced β-arrestin recruitment (BRET) (human CXCR4 receptor [2]): ~93%

Second part, the molecule after the results:

% of inhibition of [^35S]GTPγS binding stimulated by SDF-1 (100 nM) (human CXCR4 receptor [2]): 58% | IC50 in [^35S]GTPγS binding, NIH3T3/CXCR4 cells (human CXCR4 receptor [2]): 8.5 nM | inhibition of SDF-1-induced β-arrestin recruitment (BRET) (human CXCR4 receptor [2]): ~71% | percentage of inhibition of SDF-1-induced BRET increase, CXCR4 homo-dimers (human CXCR4 receptor [2]): ~21% | % inhibition of [^125I]SDF-1 (human CXCR4 receptor [3]): 49%
B3: humanized antibody Hz515H7 VH1 D76N VL2.3 (antibody, human IgG1, kappa, V domains shown)
VH: B1 VH
VL: B1 VL with R83S, V84L, V89L
notes: human IgG1/kappa format; also called hz515H7VL2.3

% of inhibition of [^35S]GTPγS binding stimulated by SDF-1 (100 nM) (human CXCR4 receptor [2]): 69% | IC50 in [^35S]GTPγS binding, NIH3T3/CXCR4 cells (human CXCR4 receptor [2]): 4.05 nM | inhibition of SDF-1-induced β-arrestin recruitment (BRET) (human CXCR4 receptor [2]): ~81% | percentage of inhibition of SDF-1-induced BRET increase, CXCR4 homo-dimers (human CXCR4 receptor [2]): ~65% | % inhibition of [^125I]SDF-1 (human CXCR4 receptor [3]): 68% | IC50 (human CXCR4 receptor [4]): 6.69 nM
B6: humanized antibody Hz515H7 VH1 D76N VL2.1 (antibody, human IgG1, kappa, V domains shown)
VH: B1 VH
VL: B1 VL with T69S, V89L
notes: human IgG1/kappa format; also called hz515H7VL2.1

% of inhibition of [^35S]GTPγS binding stimulated by SDF-1 (100 nM) (human CXCR4 receptor [2]): 86% | IC50, SDF-1 induced U937 cell migration (human CXCR4 receptor [2]): 4.53 ng/mL | IC50 in [^35S]GTPγS binding, NIH3T3/CXCR4 cells (human CXCR4 receptor [2]): 3.86 nM | inhibition of SDF-1-induced β-arrestin recruitment (BRET) (human CXCR4 receptor [2]): ~94% | percentage of inhibition of SDF-1-induced BRET increase, CXCR4 homo-dimers (human CXCR4 receptor [2]): ~88% | % inhibition of [^125I]SDF-1 (human CXCR4 receptor [3]): 77% | IC50 (human CXCR4 receptor [4]): 1.44 nM
B7: humanized antibody Hz515H7 VH1 D76N VL2 (antibody, human IgG1, kappa, V domains shown)
VH: B1 VH
VL: B1 VL with D9S, P49S, D66A, V89L
notes: human IgG1/kappa format; Biotinylated in the IHC study; also called hz515H7VL2; hz515H7 VH D76N VL2

IC50 in [^35S]GTPγS binding, Hela cells (human CXCR4 receptor [2]): 0.2 nM | IC50 in [^35S]GTPγS binding, NIH3T3/CXCR4 cells (human CXCR4 receptor [2]): 1.9 nM | decrease in SDF-1-induced U937 cells migration (human CXCR4 receptor [2]): > 80% | inhibition of SDF-1-induced β-arrestin recruitment (BRET) (human CXCR4 receptor [2]): ~95%
B9: murine monoclonal antibody 515H7 (antibody, V domains shown)
VH: B10 VH
VL: DIVMSQSPSSLAVSAGEKVTMSCKSSQSLFNSRTRKNYLAWYQQKPGQSPKLLIYWASARDSGVPARFTGSGSETYFTLTISRVQAEDLAVYYCMQSFNLRTFGQGTKVEIK
